Results: patent US20190212340A1, “AN ELISA-LIKE ASSAY FOR QUANTIFYING ENZYMATIC ACTIVITIES OF MONO-ADP-RIBOSYLTRANSFERASES” (University of Southern California, priority 2016, published 2019)

How the values were obtained:
[1] = substrate: NC(=O)c1ccc[n+]([C@@H]2O[C@H](COP(=O)([O-])OP(=O)(O)OC[C@H]3O[C@@H](n4cnc5c(N)ncnc54)C(O)[C@H]3O)[C@H](O)C2O)c1; experiment: Enzyme kinetics of PARP15-catalyzed automodification by MLISA (Experiment No. 2); assay type: biochemical, human; details: other: 500 nM PARP15, NAD+ 5-400 μM, Michaelis-Menten fit; pH 7.4
Experimental: To characterize enzyme kinetics, 96-well plates were coated with reactions in triplicates that consist of 500 nM of PARP15 and NAD^+ at varied concentrations (5, 10, 20, 30, 40, 200, and 400 μM) in reaction buffer (50 mM Tris-HCl, pH 7.4, 2 mM DTT). The reactions were quenched with 20% ice-cold TCA at different time points (0, 2.5, 5, 7.5, 10, 12.5, 15, and 20 minutes). The plates were further incubated for up to 2 hours under room temperature followed by five washes with 200 μL of PBST. Kinetic parameters were calculated by fitting data to Michaelis-Menten model implemented in GraphPad Prism.
To determine reaction rates, standard curves were generated for each reaction plate. […] Upon additions of Coomassie Plus (Bradford) assay reagents to clear 96-well pureGrade plates, the absorbance at 595 nm of each well was measured by Synergy H1 Hybrid Multi-Mode Microplate Reader. The concentrations of automodified PARP15 were calculated through fitting to linear regression curves generated with BSA standards. Standard curves were constructed through linear correlation of the determined concentrations of automodified PARP15 with the fluorescence intensities of the corresponding wells measured on 96-well ELISA plates.

[2] = substrate: NC(=O)c1ccc[n+]([C@@H]2O[C@H](COP(=O)([O-])OP(=O)(O)OC[C@H]3O[C@@H](n4cnc5c(N)ncnc54)C(O)[C@H]3O)[C@H](O)C2O)c1; experiment: Km determination of PARP15 automodification by M2-based ELISA (Experiment No. 1); assay type: biochemical, human; details: other: 500 nM PARP15, NAD+ 5 μM to 4 mM; pH 7.4
Experimental: 96-well ELISA plates were coated with reactions in triplicates consisting of 500 nM PARP15 with various concentrations of NAD^+ (5, 10, 20, 30, 40, 200, 400, 1000, 2000 and 4000 μM) in Reaction Buffer (50 mM Tris-HCl, pH 7.4, 2 mM dTT). The reactions were quenched with 20% ice-cold TCA at various time points (0 to 20 minutes). The plates were further incubated for up to 2 hour under room temperature followed by five washes of PBST.
PARP15 automodification assay was performed by adding 50 μg/ml PARP15 to Reaction Buffer with 500 μM NAD^+ in a microcentrifuge tube for 2 hours. Automodified PARP15 was diluted and plated simultaneously on both the ELISA plate and clear pureGrade plate according to manufacturer's protocol. Upon addition of Coomassie Plus (Bradford) Assay Reagent the absorbance of each well was measured on a Synergy H1 Hybrid Multi-Mode Microplate Reader (BioTek, VT). The concentrations of automodified PARP15 in each well were determined through linear regression curve using BSA standards. A standard curve was constructed through a linear correlation of automodified PARP15 concentrations and the corresponding fluorescence signals.

B1: PARP15 (Homo sapiens) (protein)
chain: MGHHHHHHIEGRNLPEHWTDMNHQLFCMVQLEPGQSEYNTIKDKFTRTCSSYAIEKIERIQNAFLWQSYQVKKRQMDIKNDHKNNERLLFHGTDADSVPYVNQHGFNRSCAGKNAVSYGKGTYFAVDASYSAKDTYSKPDSNGRKHMYVVRVLTGVFTKGRAGLVTPPPKNPHNPTDLFDSVTNNTRSPKLFVVFFDNQAYPEYLITFTA
notes: The catalytic domains of PARP15 (residue 481-678); His6 (N); Factor Xa cleavage site (IEGR) (N); made in house; host or cells: E. coli BL21 (DE3)
Km [1]: 4.5 ± 2.9 µM | kcat [1]: 0.000183 ± 1.7e-05 s⁻¹ | Km [2]: 7.148 ± 3.138 µM
